# B1: Rap guanine nucleotide exchange factor 4 (Mus musculus), Q9EQZ6-3 (parent)
# chain: MVAAHAAHSQSSAEWIACLDKRPLERSSEDVDIIFTRLKGVKAFEKFHPNLLRQICLCGYYENLEKGITLFRQGDIGTNWYAVLAGSLDVKVSETSSHQDAVTICTLGIGTAFGESILDNTPRHATIVTRESSELLRIEQEDFKALWEKYRQYMAGLLAPPYGVMETGSNNDRIPDKENVPSEKILRAGKILRIAILSRAPHMIRDRKYHLKTYRQCCVGTELVDWMIQQTSCVHSRTQAVGMWQVLLEDGVLNHVDQERHFQDKYLFYRFLDDEREDAPLPTEEEKKECDEELQDTMLLLSQMGPDAHMRMILRKPPGQRTVDDLEIIYDELLHIKALSHLSTTVKRELAGVLIFESHAKGGTVLFNQGEEGTSWYIILKGSVNVVIYGKGVVCTLHEGDDFGKLALVNDAPRAASIVLREDNCHFLRVDKEDFNRILRDVEANTVRLKEHDQDVLVLEKVPAGNRAANQGNSQPQQKYTVMSGTPEKILEHFLETIRLEPSLNEATDSVLNDFVMMHCVFMPNTQLCPALVAHYHAQPSQGTEQERMDYALNNKRRVIRLVLQWAAMYGDLLQEDDVAMAFLEEFYVSVSDDARMMAAFKEQLPELEKIVKQISEDAKAPQKKHKVLLQQFNTGDERAQKRQPIRGSDEVLFKVYCIDHTYTTIRVPVAASVKEVISAVADKLGSGEGLIIVKMNSGGEKVVLKSNDVSVFTTLTINGRLFACPREQFDSLTPLPEQEGPTTGTVGTFELMSSKDLAYQMTTYDWELFNCVHELELIYHTFGRHNFKKTTANLDLFLRRFNEIQFWVVTEVCLCSQLSKRVQLLKKFIKIAAHCKEYKNLNSFFAIVMGLSNVAVSRLALTWEKLPSKFKKFYAEFESLMDPSRNHRAYRLTAAKLEPPLIPFMPLLIKDMTFTHEGNKTFIDNLVNFEKMRMIANTARTVRYYRSQPFNPDAAQANKNHQDVRSYVRQLNVIDNQRTLSQMSHRLEPRRP
# Variants of: B1
# Details: with rap1b_human RAP1B
row,effect of a mutation on the interaction,Variant
1,decreasing interaction strength,R886A
2,decreasing interaction strength,H452A
